Reference: the DeepSol protein solubility set

assay: soluble on expression in E. coli; label from the status in PepcDB or PDB records

| Sequence | soluble on expression in E. coli |
| --- | --- |
| MKKTLYIFQNGELRRKDHSLYFETEERKRYIPVENTNDIYIFGEVDVSKRFLEFAAQKEIIVHYFNHYGYYVGSFYPREHLNSGHVVLKQAEHYIDPAKRLELACLFVQGSIRQMERVLKYYRSRLSDPEELEKALQLIEREEGKLSQANTVEQLMAVEGHIREAYYASFDAILRHPDFVFEKRTKRPPHNRLNALISFGNSIVYTMCLSEIYKTYLDPRIGFLHSTNFRRFSLNLDIAEIFKPIIVDRLIFTLVNKRMLSSKHFEKLTNGIVLNEEGRKLFVSELEKKMQTTVQHRHLGKSVSYRRLIRLELYKVQKHILGEKMYEPYAARW | not soluble |
| SKFGKSLSNQIEQTLPEWQDKFLSYKELKKRLKLIGSKTADRPVKRLRLDEFSVGISKEEINFIQLLEDELEKFNNFFVEKEEEYIIRLKEFRDRIAKAKDSMEKMIKIRKEIVDFHGEMVLLENYSALNYTGLVKILKKYDKRTGDLMRLPFIQKVLQQPFYTTDLLFKLVKESEAMLDQIFPANETESEIIQAELSEHKFMESLHMKSTIAALRVLKEIRSGSSTVSVFSLPPLQLNGLDETWKKIPLLEQEAK | soluble |
| MKVYLHFSPQFFANTYLIGNEITKEAVIIDPAKITEKMIHQIEKNEFNLKAVLLTHDLEHPYETGLNTILKIYSPKVYAGSCFSENVTINTLRGDGCIDVAGYSVRYFAIPAHSSYSYMFQIENMVFTGTSLSAGMIGQTSNMYAERTLRNILKTKLMCFEDNLIIMPFYGPPTSIGVERKYNASFFQDLEHHHHHH | not soluble |
| MEWKTVVKPHTERINVKRSEFYATIFPVKDEKDFREKLKEVSKRDATHNCWAYRIFSPNGILEHSSDDGEPSGTAGRPILGALKKYDLMNTAIVVTRYFGGVKLGVRGLIEAYSSAAEMAVKGAELRKLRLMKEFEVEVDYQELNNVFRVVEMMGLELVEMDYTERGAKILLRGLEVPENLVIKTIRDVLI | soluble |
| MRVIEVKNLTFSYDGKHNVLEDVSFYVEKGDFLGIVGPNGAGKSTLLKLILGFLKPKSGEIYLFGKKIEEFKDWKRVGYVPQRLSVEHAFPGTVKELLSSVCEDKKEIDYLVEFLKLKNIVNKQFTKLSGGQQQRVLLAMALSYNPELILLDEPTVGLDVHAINHFMSILLDLNMNHKKSIVMISHDIGTLLKHASKILCLNKKVCYFGEPEGAIEYIEEAFGLRGFLHGVS | soluble |
| MAHHHHHHMPNNDSHDAQLLRHYAQFFPNVLFTSEEEMEKYCQDARPDAVKKVLDLPEGEEVPEDAMNDPRAHLYILKHIVGRNATTAAFVALRGSDKQKVVAKFIMLNDEKQAAYARSEVHCLAACDHFGIVKHYDDLKSEDKLLLIMEYGSGGDLNKQIKQRLKERLPFKEHEAGLLFYQIVLALDEVHSRKMMHRDLKSANIFLMPTGIIKLGDFGFSKQYTDSVSLDVGSSFCGTPYYLAPELWERKRYSKKADMWSLGVILYELLTLHRPFKGPSQREIMQQVLYGNYDPFPCGVSDGMKAVMEPLLSKDPALRPTTTQLLHTELMKYVANIFEEIVRNSEVIEKHDKERILRQLAESRAKAPPPNSIQAGAVSNDVVREGYLLKYSSDMKWKKRYFSIKNGQLRISLTDNPEKDGVSPKSASLETVNDVFPVPEAYCRSNPHQLVIWFTNGQKIIAMAKSAEERDQWISDFQRACGM | soluble |
| LKSSRFHEKILCDIGGVPMFVATARRVSSVDEVCIALDDEKVLSIAKEYGLNAVLTSKDHESGTDRINEACKKLALKDDEIIINVQADEPFIECENLLKFKEFASFCLDKKAFMASCYKKITQEEAMDPNLVKVLCDKEGYALYFSRAKIPYERENYEESFKGHLGIYAYSVKALREFCSLSSSALERAEKLEQLRAIENGKKIKMLEISTTSMGIDTKEDYERALKIYLEK | not soluble |
| MKKVSSQILHQLRSQRGQSGMWCTNLTHSSTTHHQHPRQTSSHLLQRLESAPCLLKLSTTLLCLEIQQSMSLHPKEAILTTPDAVHREKMLTRSRKGDQTHEDQTDGTRKARNNIGPPNLFWITAKFQEQSTKMPNCWCLQLVNCAQSSILIGLWML | not soluble |
| MSQSISLKGSTRTVTEFFEYSINSILYQRGVYPAEDFVTVKKYDLTLLKTHDDELKDYIRKILLQVHRWLLGGKCNQLVLCIVDKDEGEVVERWSFNVQHISGNSNGQDDVVDLNTTQSQIRALIRQITSSVTFLPELTKEGGYTFTVLAYTDADAKVPLEWADSNSKEIPDGEVVQFKTFSTNDHKVGAQVSYKY | soluble |
| MGSDKIHHHHHHMEPIVRLENVTKNYRGVPAVKNVSFDLRKGEIHALLGENGAGKSTLTKIIAGVVDATSGKMFHKGREIAYASPHAALEAGIAMVFQETSLVPSMTVAQNLYLGTEKFLNRLRGTYIAAQQFLQSLNFPVDPNAMVATLGAAKRQMVEIARAVHHNAEIIIFDEPTATLTPEEKRHFFALIRRLKASGVSIVFISHALEEALAIADRITILRDGELVITDDTSAFDRDKIVAAMVGRTLSGQIYRQRDEARLRKAGKKVLSVQDISMSNVVRNNSFSIFEGQITGVFGLIGSGRTETFKIVSGIYKRDFLRGGAIELDDRPVRYLVPSEAVADGIVYVTEDRKSEGIFETMGIAENLFGGLLAAGREKAWVINQQEMRQLSAQWTKTLNIKAINDNARVVELSGGNQQKVVIGKGLVQQPRIVIFDEPTRGVDVGAIAEIHQIINRLADEGLAVVVISSYLPEIMNLSDRILVCRQGRIVEEYSPAEATEEKIMYAAVH | not soluble |
| MSLARARMKERGVEVSDIAELVFFLQKKYHPDLTIDECTLNVNRVLAKREVQNAILTGIELDVLAEQKKLSEPLQTMLEIDESLYGVDEVLAFSIVNIYGSIGFTNYGYIDKEKPGILKRLNDKSTGECHTFLDDIVGAISAAASSRLAHREGHHHHHH | not soluble |
| MLDKIRFTVLLDRPFYQPGQTIQGHVVCEPHHPLEIDCVEGRLHGEIQYFQQLPPNHNRNGSPLPPSKTRVLIDEKAQLWKYQTVSEMLGLDVFYDENQNRHFSSESASASSSSLFTTAATFPIQIELPHFAPPSFYCPGSPVSIRFTLEIQLYNQGFKIASHEENLVVLNYESIKRQVTPKPVNFQKTFNFPKERSISLEMLLPTDVFTTTARLENCITICNRWKQSLKYVHLNIVRRISALNQNNEVIDTVKIDTTGVGLPSKTKIAVGETYSFRPTFNVPALPPNIHVNGLFKTEYSLKVTIGRAHNFVLASYEVPITIVTMDQSSRRSMQKEDILVDISASNNTLNNLPVDLLA | not soluble |
| MGSDKIHHHHHHVSSSLKDIQNKNQELDTKKQILSALNIRDVKDADAEYNKYVKGDMLMNVDGTLTENTDGFSISYEKEAKENNRLHVFVCEVDGETKYVVPVYGAGLWGAIWGYVALNADKDTVYGVYFSHASETPGLGAEIAGAAFQNEFSGKKVLKDGQVALAVEKNGKVTDPAYQVDGISGGTITSKGVDAMIKACLSQYDKFLTNN | not soluble |
| MDLFDLIFPPPPQSPSKLHPTQNHILPPEPLNRDFGDTRKNHKKAQPRRTTKAPSTSSPTIHDRQTPPRPTTPKSPTEKLLPIYHKFADGTEVVNPAAYAQRGFGWVKQNNTARVSWAKWAQSTKKCDDDIYGLKWIEERYPNWRDSNFRIRERRRSRSRSPQLSDNGSEDISIYLGRANSSSPNPTATGSETSYGSPTDAIYIPRNY | not soluble |
| MGSDKIHHHHHHMVDLDLTQIQKDILYALITLYKKKSGGSVKGEEIAELINRNPGTVRNQMQALRALGLVEGVPGPKGGYRPTSKAYELLSVTRPEESVVVPVVVNGNVMEELSAEEIVLPSISNPNICQARIRIIGDIKKINPGDSVIVGPTPVNEMMVYGKVVGRDDTENTIVLDIEKIVALPKDTVGEHMSSPIISVDAEESVVNAAKVLAENGIYCTPVQKNGKFVGIFTLDHVAKAVAEGKLNAKVEEVMRPKLVMVEKDTKIGEALRLMRDEKVRILLVTDKGEPVGVITDQKILTRLAPEQVET | not soluble |
| MDDELRGLLARYARGELSADDARRAILRYPKWRVAEIDGELETVALDDGTPMLIAESSASDGREYSGLELVRDIAPLVGGLSFDPDEPWGSAFRPGALPELQNWARTVELEDAVAKPGPGQRDLLYEGPWWVAVSPGTGRPAVHRADGLDVITIMTAPDAAATFRRTERHRGLDVVRLGPALWGDLAKRSDFDGVRLNPLRPLAQLWPPHVPAMLVAGCDPRPNAEPLPARTVAEIHLWLDQHGARQEKRELSNRATPVGEVTVARAWWNYDRREIAFTRVAPASDTEGLGSVPSRILCAGKLRQSIQSKLAGLPRLTWRADAWHRQRAALAVGWALELEKLVCGERVPFAALRTPEGAHLWHLEPQAFTARAIRKLRDRAASFR | soluble |
| MRIALFTETFLPKIDGIVTRLCQTVRHLQRNGHQVLVVAPDGGLDHYEGARIYGVSGFPLPLYPELKLALPRPAIGKALAAFEPDLIHVANPAVLGLAGLYYAQKFQLPLVASYHTHLPQYLKYYGLGFLEELLWFLLRWGHNCAQLNLCTSTAMVAELKAHGIRHLDLWQRGVDVELFHPQRQSQEMRHFLSQGHPEAPLLLYVGRLSAEKEIEQIKPILEQIPQARLALVGNGPHREALEKHFAGTPTHFVGYLRGERLAGAFASADVFIFPSRTETLGLVLLEAMAAGCPVVAANSGGIPDIVTDGVNGFLFDPADPTGAITACQRLFDSPDDRETLRQNARQEAERWSWAAATQQLEQYYRSVLPVPQRDVALSHLEHHHHHH | not soluble |
| MSLDTPRIILHNSDTAPLTHWLRAAFPQADFRECNSYEALPALIEGYRPEVVYSVRFAGTPGFPRDALFGPGGPRWIANGGAGTDHYGQWDPGQTTVTNTAGVAAEMMAEYILGGFLHFSLDVPGLQKDKAARVWNARTVRPLAGKTLLIIGLGHTGRAVAARSKAFGMKVLGTRARPKPMENVDEVHAADDLHDLLPHADFIAVSTPLIPATRGLIGAQEIAAMKSGVIFADVSRGGVVDQTALYDALSVGHVAAAALDVFETEPLPEISPLWALENVIISPHCSSVFAEWEEASFELFLQNLGRWMRGEGHHHHHH | not soluble |
| MKLVTGFARIRKPSRPIEFGRWPNRSMSVRVPGAMPLASMNLAVGQSVRIGQRPNSSPSSLPNISFAKIRRWPSRRWLRHQGLHGPIDFGRWPNETMSIRVPGAMPLASMKLAVGQSTALAKGQTQHSQRATPLVLQRTTHTLANGQMQPIITPKRIVHQTRSHIVGGSRDIRLGMSLPGDAPAGSRCRQRRFHDALGRPKRSRTLVANRTCPGWDVASSQTWTSPAWPSPQSPSPDGFGSCQTNKDLTSRGCGG | not soluble |
| MEDELPIIKGKKVILFAPTFRGSGHGTAHYPFFKIDFERLARYCEKNNAVVLFKMHPFVKNRLNIADKHKQYFVDVSDFREVNDILFITDLLISDYSSLIYEYAVFKKPMIFYAFDLEDYITTRDFYEPYESFVPGKIVQSFDALMDALDNEDYEGEKVIPFLDKHFKYQDGRSSERLVRNLFGS | soluble |
| MKERIVGQSGELFCFGQMPVWKVENLPEVLLSGYSSEEGEWVCLNVLQGDVEVRAPDGAAEVWSAESGDCVFAPQQVFSVKPKTDDAEIRLSLYCAAADYFHKKYGMSATHSAVAAAQDTVPAGRALDMGCGQGRNALFLGLKGFDVTAADCNPAALANVAELAEAEGLNVRTLEYDLNAAALQGEFDYIVATVVLMFLMPQRVPDVIADMQAHTAAGGYNLIVSAMDTADFPCPMPFPFKFKEGELKDYYRDWELVEYKEELGAMHAKDENGNPIRFKFVTMLAKKPGLEHHHHHH | soluble |
| MSDISEKFWDASIEELKKGYVFDEEKEEYICLACGETFIKGVIYQDNQILYEAEKFVQLHIQNEHTSMFDYLLNMDKKFTGLTDLQKKMVQFFHMGLNDKEIVKEMDGGSTSTIRNHRFTLREKMKQAKVFLALMELSEEKSKVQTKFVPIHRTATMVDDRYNITEEENDEVLKAHFTEGLDGPLSKFPKKQKRKLIILRHLVKKFDSNKKYTEKEVNTVIENVYPDFVTLRRYLIEYGFLDRTADGSQYWVKL | not soluble |
